The values below come from the DeepSol protein solubility set.

The series can be described thus: soluble on expression in E. coli; label from the status in PepcDB or PDB records.
Take “MNKKIFVIGSGLSGLVASTELLKKGYHVTMLDQEPRQAIGGQAYWSFGGLFLVNSKIQQRLGVKDSYELALNDWLGSAQFDRPDDEDYWAKQWAEAYVRFATFEKENYLKEMGVRLTPILGWAERGGASASGHGNSVPRFHITWGTGPGLVEPFSRFVLEKEQEGQFKFLPRHQVTDIGIEHNQVTHISGIILEPSDVERGEKSSRTVIDTFHYEVDELLITSGGIGANMPLIRKYWPKRLGNPPKTMIQGVPDSTDGHLIQVTEDAGANIVNKDRMWHYTEGIQNHSPIWSNHGIRIIPGPSSMWFDATGKRMAAPDYPGFDTLHTLETIMKTGYDYSWFILTEDIIKKEFVLSGSEQNPDLTDKDIKLLLQERLGSKATSPVEAFMDKGPDFILADDLGMLVRKMNDLAGNDLLNYETIKHEIKARDLQIDNPFTKDPQVAFINNARQFLGNKLVRTAKPHKILSGRNGRLIAVKLNIISRKTLGGIQTNLDGQALNPSMQPIQGLYAAGEASGFGGGGVHGYRALEGTFLGGCIFSGIRAAEGIHHHIQLEHHHHHH”: the “soluble on expression in E. coli” value was “soluble”. “MGSDKIHHHHHHMTATVRQMWRHPIKGIGAEPLTEVRLETGGPMPLDRAWAVLTGTSEDTGAWQPCRNFARGCFGPELMAITAETQGNQITLRHPKQGEITLDPATDGARLLEWLLPLYPAERPQPHTLIKAPAGGMADADFSAVAILSLTSLKALGDALGQELDPRRFRGNLWIDGTAPFEEFDWVGRELKIGTARLEVVDRITRCRATETNPETGARDANTLKALREHWGHTDFGIRARVLSDGDIALSDSLEVL”: the “soluble on expression in E. coli” value was “not soluble”.

With “MSFALLMASGGLDSTTVAYWLTERGVQFIPVFFDYGQHCVETEWETLKEVLPASAAHPERNDISDLFRGSKSRLITEADLWNEEVKDEDLYVPYRTLLFYSAAAARAQTLGAFEVYTGFINSNRAKEIDCTAEFMNKLDALTDSVGPVRFLSPFRFWSKSEVAKESIRLGVPIGRTFSCQAASLMPCGACPNCVERLAALRETGLLA”, the “soluble on expression in E. coli” value is “not soluble”. Under “MTRHGKNCTAGAVYTYHEKRKDTAASGYGTQSVRLGKDAIKDFDCCSLSLQPCRDPVLTEDGYLYEKEAILQYILHQKTEIAKKMKAYEKQKQALKSEGQLESKSEERERAEKFKQRENNIVSKPINPFTSGKSKDEGNQNGSTSSSSTDTSSGESSSSSALPSFWIPSLTPEAKPTLLKKPSKTVSCPMSGRPLKMSDLITVRFTPLDPSLDRVALLTRQDRYVCAVTKDTLGNSVPCAVLRPSGVVVTMECVEKLIKKDMVDPITGDKLKEKDIIPIQRGGTGFAGSGVDLKAKEARPVMQA” stands “not soluble”; under “MDEDVLPGEVLAIEGIFMACGLNEPEYLYHPLLSPIKLYITGLMRDKESLFEAMLANVRFHSTTGIDQLGLSMLQVSGDGNMNWGRALAILTFGSFVAQKLSNEPHLRDFALAVLPAYAYEAIGPQWFRARGGWRGLKAYCTQVLTDDDDLEHHHHHH”, “soluble”. As for “MGSDKIHHHHHHMIVGGLWMHLNEGSTPMDKYIEITAQKSRMYLLPDSSKVWMQPGSSIRFAEDFKKHRNVWLKGNSLFEVHKNMGRKFRVYIDKAFIEVKGTCFLIKQNNPSANEITLFNGSIEFNVESTQHKIEMKPLQELVYNPADAGTQLRQIENIEWQNGRYNFTQFNLEHLTRIINQMYGSRIIISDKVNKNCAFTGSIRYDESLEDVIDKICFSLNLRKKEINHEIIIYN”, the “soluble on expression in E. coli” value is reported as “not soluble”. Under “MTILPVKKKREKDSQQRSVSTIGSSAENSRQQLSGPSCSSSASSSSSAAKRIRSQEDGPPSKRWVLSASSTSSTNKSPIPSSSPVLPPPQPEIEPNRSQSPGNADYNSDDEYEMQNIRDDEIETEFSNRLAARGLIIKEMVGDGACMFRSIAEQIYGDQEMHGQIRRLCMDYMSNNRDHFKEFITENFENYIQRKREENVHGNHVELQAISEIKKKSNYILKNSLHSINSEPINVLLPRPEPEATALTDGSASTSNAAPPPSTVPIQQNPPLRLSYHRAVHYNAILAPNIPTIGIGLGLPGMIPGSADKELMSTAMKTSELEHIEETMLQDKIDMTDFQRTQADIEDQITRESLISYLNDFEKSKNAPSTSAGAPGPSNFSGEPPVSGSGLYEEMLAAQSLEWDAYTDDVAIAEAMLVSQQDYMSNKPSTSSSGSGPSTSE” stands “not soluble”; under “MGHHHHHHSHMSGRSVPHAHPATAEYEFANPSRLGEQRFGEGLLPEEILTPTLYHGYYVRPRAAPAGEGSRAGASELRLSEGKFQAFLDVSHFTPDEVTVRTVDNLLEVSARHPQRLDRHGFVSREFCRTYVLPADVDPWRVRAALSHDGILNLEAPRGGRHLDTEVNEVYISLLPAPPDPEEEEEAAIVEP”, “not soluble”; under “MSLSLRLPLAGGGLETFKLSAPRDFPARASGPMNRIAFSAAHVVADPLAASDPWLEAAIDWDHTIAYRQRLWDLGLGVAEAMDTAQRGMGLDWPTSLDLIRRSVEAAKAHGPEALVFSGAGTDHLAPEAARSLDDVIRAYEEQVAAVEKVGGRIILMASRALARIGTSAADYETVYGRILSQVREPVIIHWLGDMFDPALAGYWGTRDLDAAMDTAVAIINAHAAKVDGVKISLLDKDKEIAMRRRLDPAVRMYTGDDFNYAELVAGDAQGYSHALLGIFDAIAPAASAALTALAAGDEAGFHDILAPTVPLSRHIFRAPTRFYKTGVVFMAYLNGHQDHFTMVGGQESARSTLHLAELFRLADRAGLLTDPDLAVQRMRAVLAVRGVEAEGHHHHHH”, “soluble”.

“MKAVIAKNEEQLKDAFYVREEVFVKEQNVPAEEEIDELENESEHIVVYDGEKPVGAGRWRMKDGYGKLERICVLKSHRSAGVGGIIMKALEKAAADGGASGFILNAQTQAVPFYKKHGYRVLSEKEFLDAGIPHLQMMKD”: the “soluble on expression in E. coli” value was “soluble”. Regarding “MQNISTHKYMEKLDLTWSDDSIRFINTATPRARQTFFYVQEAGDFCTSSPYFTERENLNSFLIIYTLRGKGLLKYHGSQYSLHPGTTAYINCMEHHHYECLQKQNWEFLWLHFNGPSALGYYEEFMRSNFHILDSLDPFFMESTMRRILSITQRKDIHSEILSSCLIINILTRILIENDTENLSLGFMPTY”, the “soluble on expression in E. coli” value is given as “not soluble”. Turning to “MASNSSSCPTPGGGHLNGYPVPPYAFFFPPMLGGLSPPGALTTLQHQLPVSGYSTPSPATIETQSSSSEEIVPSPPSPPPLPRIYKPCFVCQDKSSGYHYGVSACEGCKGFFRRSIQKNMVYTCHRDKNCIINKVTRNRCQYCRLQKCFEVGMSKESVRNDRNKKKKEVPKPECSESYTLTPEVGELIEKVRKAHQETFPALCQLGKYTTNNSSEQRVSLDIDLWDKFSELSTKCIIKTVEFAKQLPGFTTLTIADQITLLKAACLDILILRICTRYTPEQDTMTFSDGLTLNRTQMHNAGFGPLTDLVFAFANQLLPLEMDDAETGLLSAICLICGDRQDLEQPDRVDMLQEPLLEALKVYVRKRRPSRPHMFPKMLMKITDLRSISAKGAERVITLKMEIPGSMPPLIQEMLENSEGLDTLSGQPGGGGRDGGGLAPPPGSCSPSLSPSSNRSSPATHSP”, the “soluble on expression in E. coli” value is recorded as “soluble”. With “GPHMADLLLNSTQFVQAFTYLIQNDKEFANKLHKAYLNGCSNLLLD” the entry was “soluble”; with “AIASDEPKLSERSLHKFENVRIIIKDENKTCFQGELNIGEDWFCLLSEIDPSNSLRVNAKDLLLHAICQRDEHCEKPSIYCQVQGESDEDQYETIYIVPEESSQVEKIFETFCDLVRRTPVPLTDEEGSDGEWYGNVPWSVGNCDSEQFEDAEETDTQL”, “soluble”. For the sequence “MGSDKIHHHHHHMNNKERLLYVQEILQKETDEENELTLEQIMTKLHAVKGTEVNKKTLRDDLNALKDSGLFPISVNQEKNGVEKTYQHRTKLFTIQELRLLADALTTASFISKEETEQMINKLKKLTSHRLADHLDNRLLVPPDRGNREVQELIKTVHLLHDVIKHGEVIRYQYGQYNLTKEFTLRENGRFYTLKSYALIWDDQRYYLIGEDEDEDLIRYERVDQMYHVERTGAFFTWPEKFDLMEWLRTHSSVMTEQKEDLQLECHLDSLQDVLDCFGLDVTIQSLTDERFLLATKAVIDKGLMDWLFSLGGKVKVIHPPKLAEEIQREATAIIDQYRLANS”, the “soluble on expression in E. coli” value is on record as “not soluble”.

As for “MTKKHREGLSLRAFAKKMRVSPNAVVSRFKTGKFDQALFEDGSVNEALATAIWNENPTKRPAPFLAPDGQPRTKIKQVSTEGANEYEIKLERMQVALESEKIALERLRETTVDREEVKRAAREFGRAHRDAMLNFPHRFGASIAAQVGCDAASLIGAIDYYIRKALLEAVHIPVPFHDPHSPELENLQETNNG”, the “soluble on expression in E. coli” value is reported as “not soluble”. On to “TGAQTKLTQTGAITTVNVDHLKANPSSSIVNTLAGNVAGVLAMQTSGQPGKNVSEFWIRGISTFGASTSAYVLVDGFERSMDEINIEDIESFSVLKDASATAIYGSKGANGVVLITTKHGKAG”, for which the “soluble on expression in E. coli” value is “not soluble”. For “ANIQSFSFKNFNSPSFILQGDATVSSGKLQLTKVKENGIPTPSSLGRAFYSSPIQIYDKSTGAVASWATSFTVKISAPSKASFADGIAFALVPVGSEPRRNGGYLGVFDSDVYNNSAQTVAVEFDTLSNSGWDPSMKHIGIDVNSIKSIATVSWDLANGENAEILITYNAATSLLVASLVHPSRRTSYILSERVDITNELPEYVSVGFSATTGLSEGYIETHDVLSWSFASKLPDDSTAEPLDLASYLVRNVL”, the “soluble on expression in E. coli” value is reported as “soluble”.

As for “SLEEPPKAVELEGLAACEGEYSQKYSTMSPLGSGAFGFVWTAVDKEKNKEVVVKFIKKEKVLEDCWIEDPKLGKVTLEIAILSRVEHANIIKVLDIFENQGFFQLVMEKHGSGLDLFAFIDRHPRLDEPLASYIFRQLVSAVGYLRLKDIIHRDIKDENIVIAEDFTIKLIDFGSAAYLERGKLFYTFCGTIEYCAPEVLMGNPYRGPELEMWSLGVTLYTLVFEENPFCELEETVEAAIHPPYLVSKELMSLVSGLLQPVPERRTTLEKLVTDPWVTQPVNLADYTWEEVCRVNKPESGVLSAASLEMGNRSLSDVAQAQELCGG”, the “soluble on expression in E. coli” value is “not soluble”.

As for “MRVVVTGATGFVGQQVVKALSDRGDQVVALVRSPGKAAKQFAGVPRVEWLGYTPKAAGDWFSALEGADAVIHLAGEPLANGRWTPQRKQEIYDSRVVGTQQLVQAIAQCQQRPRVLVSTSAIGYYGTSDTETFVETHAAGNDFLAKVCGDWEAAAQGVTELGVRLVILRFGIVLGEQGALAKLLLPFQLYLGGPLGSGQQWFSWIHQQDLVRLILTAVDQVGMQGVYNATAPEPLRMADFCRILAEVMQRPSWLPVPAPVLQLLLGEGADVVLKGQRVLPERTLATGFEFHYPNAKTALTNLLKPRYTEGSRLEHHHHHH”, the “soluble on expression in E. coli” value is listed as “soluble”.

For the sequence “MGSDKIHHHHHHMSCAHVLRTWAPCIMRRAEQALRNSSYLAWETAMGKLALAAKVTHVPSLYLSELDGPHKGCRQPAIDGHHEIGRRCRELGVDTIVVFDVHWLVNSEYHINCAPKFEGIYTSNELPHFIRNMPYAYPGNVELGNLIAEVASEMGVKSRAHSETTLELEYGTLVPMRYMNADQHFKAVSVAGWCVWHDLDTSVRFGLAVRKAIEERYEGTVAILASGSLSHHFANNGTAEQFMHKVWNPFLEQMDRKVVELWEAGDWKTFCEMLPLYNEKCWGEGGMHDTAMLLGALGWDRYEGKVEVVTPYFGSSGTGQINAIFPVTPLPV”, the “soluble on expression in E. coli” value is “not soluble”. With “MSLNNIAPQSPVMRRLTLQDNPAIARVIRQVSAEYGLTADKGYTVADPNLDELYQVYSQPGHAYWVVEYEGEVVGGGGIAPLTGSESDICELQKMYFLPAIRGKGLAKKLALMAMEQAREMGFKRCYLETTAFLKEAIALYEHLGFEHIDYALGCTGHVDCEVRMLRELEGHHHHHH” the entry was “soluble”; with “MTGSDISHILKEGELEKRSDNLLQFWKRKTCVLTTDSLNIYTDQQKKNKSKELKLQSIKKVDCVEHTGKFVYFTIVTTDNKEIDFRCSDEKNCWNAVIAIALVNFQNRKAIQGFKTQKESENTSLGQQERCMARAP”, “not soluble”.
